Literature values in paper PMC3616122.
pKd: −log10 of the molar value.

Target: Cul3 NTD (Homo sapiens) (UniProt Q13618)
Assay: ITC

Cul3 NTD (Homo sapiens), sequence (Q13618 20-381): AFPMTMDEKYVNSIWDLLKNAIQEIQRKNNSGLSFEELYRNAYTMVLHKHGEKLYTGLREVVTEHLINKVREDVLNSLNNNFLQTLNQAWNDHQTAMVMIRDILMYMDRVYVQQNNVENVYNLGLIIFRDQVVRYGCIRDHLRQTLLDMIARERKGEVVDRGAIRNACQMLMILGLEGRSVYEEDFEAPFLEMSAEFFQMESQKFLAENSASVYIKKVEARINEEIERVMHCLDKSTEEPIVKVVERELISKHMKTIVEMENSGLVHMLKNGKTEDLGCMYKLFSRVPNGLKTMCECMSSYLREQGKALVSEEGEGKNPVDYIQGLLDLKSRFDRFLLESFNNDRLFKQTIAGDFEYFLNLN
SPOP BTB, sequence (O43791 170-300): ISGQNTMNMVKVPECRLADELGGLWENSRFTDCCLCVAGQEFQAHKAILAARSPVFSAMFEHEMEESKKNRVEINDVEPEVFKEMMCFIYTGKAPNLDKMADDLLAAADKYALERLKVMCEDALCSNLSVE
SPOP BTB-BACK, sequence (O43791 177-359): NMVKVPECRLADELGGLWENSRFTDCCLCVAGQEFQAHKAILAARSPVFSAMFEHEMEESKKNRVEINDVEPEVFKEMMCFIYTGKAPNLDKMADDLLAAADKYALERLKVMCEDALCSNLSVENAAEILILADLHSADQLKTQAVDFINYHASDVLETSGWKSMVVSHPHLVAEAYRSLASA

Substance	pKd
SPOP BTB (from UniProt O43791)	3.00
SPOP BTB-BACK (from UniProt O43791)	7.89
